# Patent US20160046724A1 (Novartis, published 2016)
# T1: BCMA (recombinant, form not given) (UniProt Q02223 1-54, limits assumed)
# T1 construct: also called BCMA substrate; Bio-BCMA
# T1 sequence (looked up): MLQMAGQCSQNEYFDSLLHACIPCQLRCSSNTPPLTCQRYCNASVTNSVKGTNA
# B1: BCMA-15 CAR (other)
# chain: EVQLVESGGGLVQPGGSLRLSCAVSGFALSNHGMSWVRRAPGKGLEWVSGIVYSGSTYYAASVKGRFTISRDNSRNTLYLQMNSLRPEDTAIYYCSAHGGESDVWGQGTTVTVSSASGGGGSGGRASGGGGSEIVLTQSPGTLSLSPGERATLSCRASQSIGSSSLAWYQQKPGQAPRLLMYGASSRASGIPDRFSGSGSGTDFTLTISRLEPEDFAVYYCQQYAGSPPFTFGQGTKVEIKTTTPAPRPPTPAPTIASQPLSLRPEACRPAAGGAVHTRGLDFACDIYIWAPLAGTCGVLLLSLVITLYCKRGRKKLLYIFKQPFMRPVQTTQEEDGCSCRFPEEEEGGCELRVKFSRSADAPAYKQGQNQLYNELNLGRREEYDVLDKRRGRDPEMGGKPRRKNPQEGLYNELQKDKMAEAYSEIGMKGERRRGKGHDGLYQGLSTATKDTYDALHMQALPPR
# notes: also called 139114 Full CAR; PY43-48LB
# B2: BCMA-Fc antigen (Fc fusion)
# chain: AGQCSQNEYFDSLLHACIPCQLRCSSNTPPLTCQRYCNASVTNSVKG
# notes: Bought reagent; also called BCMA fc fusion protein; recombinant BCMA-Fc; not shown: Fc region
# B3: BCMA-4NP (sample in the affinity and competition assays) (scFv)
# scFv: QVQLVQSGAEVKKPGSSVKVSCKASGGTFSNYWMHWVRQAPGQGLEWMGATYRGHSDTYYNQKFKGRVTITADKSTSTAYMELSSLRSEDTAVYYCARGAIYNGYDVLDNWGQGTLVTVSSGGGGSGGGGSGGGGSGGGGSDIQMTQSPSSLSASVGDRVTITCSASQDISNYLNWYQQKPGKAPKLLIYYTSNLHSGVPSRFSGSGSGTDFTLTISSLQPEDFATYYCQQYRKLPWTFGQGTKLEIKR
# notes: also called BCMA-4NP control sample
# B4: BCMA-4NP tool CAR (other, not shown: a dimerising Fc or GST)
# chain: B3 scFv
# notes: Tool CAR with humanized murine anti-BCMA scFv (VH and VL from WO2012/163805); also called 126021
# Assays:
# BCMA-Fc antigen = biological target: B2; assay: flow cytometry of CAR-transduced JNL cells stained with BCMA-Fc antigen
# Procedure: Jurkat-NFAT-luciferase (JNL) cells transduced with BCMA CAR constructs were evaluated for activation in response to BCMA-expressing target cell lines. Small-scale viral supernatant samples were generated in HEK293T cells for transduction of JNL cells. On Day 3 following transduction, BCMA CAR-transduced JNL cells were incubated with target cells at an effector-to-target (E:T) ratio of 6:1. Target cell lines were: K562-BCMA (engineered to stably express BCMA), K562 (parental line), and BCMA positive multiple myeloma cell lines, NCI-H929 and RPMI 8226. JNL activation was measured using Bright-Glo substrate (Promega) on Day 4. CAR expression on transduced JNL was assessed on Day 7 with BCMA-Fc antigen and Biotin-Protein L reagent (Table 7).
# BCMA-10 CAR = biological target: T2, BCMA-10 CAR; assay: CAR-expressing T cells incubated with recombinant BCMA-Fc; staining of CAR+ cells
# T2 construct: also called 139109 Full CAR; EG63-98LB
# [1] = biological target: T1, BCMA (recombinant, form not given); assay: affinity assay, 1:1 binding fit; instrument and sample format not stated
binder,measurement,setting,value
B1,% CAR+ (BCMA-Fc detection),BCMA-Fc antigen,36.9%
B2,binding result,BCMA-10 CAR,binds
B3,Kd,[1],100 pM
same,koff,[1],0.000172 s⁻¹
same,kon,[1],1.58e+06 M⁻¹ s⁻¹
B4,% CAR+ (BCMA-Fc detection),BCMA-Fc antigen,28.3%
